Test system: Ramos cells
Assay: Ramos tumor model in nude mice
Type: in vivo
Settings: 200 μg i.v. on days 0, 2, 4, 6 and 8; Ramos cells s.c.
Experimental: Nude mice are administered 5×10^6 Ramos cells subcutaneously on day 0 and injected intravenously with 200 μg control human IgG or TRU-016 test protein produced by CHO cells treated with 200 μM DMJ, 10 μM kifenunsine or 200 μM castanospermine on days 0, 2, 4, 6, and 8. Mice typically develop tumors within 6 days and die shortly thereafter. Tumors are measured three times weekly with digital calipers and LabCat software, and tumor volume is calculated as […]. Body weight is also determined once a week.
Mice are sacrificed when the tumor reaches 1500 mm^3 in size (1200 mm^3 on Fridays). Mice are also sacrificed if ulceration of a tumor occurs, the tumor inhibits the mobility of animal, or if weight loss equals or exceeds 20%.

B1: Kifu TRU-016: TRU-016 produced by CHO cells treated with 10 μM kifenunsine (antibody, chains of the INN, looked up, V domains shown)
VH: EVQLVQSGAEVKKPGESLKISCKGSGYSFTGYNMNWVRQMPGKGLEWMGNIDPYYGGTTYNRKFKGQVTISADKSISTAYLQWSSLKASDTAMYYCARSVGPFDSWGQGTLVTVSS
VL: EIVLTQSPATLSLSPGERATLSCRASENVYSYLAWYQQKPGQAPRLLIYFAKTLAEGIPARFSGSGSGTDFTLTISSLEPEDFAVYYCQHHSDNPWTFGQGTKVEIK
modifications: altered glycosylation (kifunensine-treated CHO)
notes: TRU-016 produced by CHO cells treated with 10 μM kifenunsine
**Q.** For B1, which “Median Survival Time” value is on record?
**A.** 10 days

Source: patent US20100150948A1, “MATERIALS AND METHODS FOR IMPROVED IMMUNOGLYCOPROTEINS” (TRUBION PHARMACEUTICALS, INC., priority 2006, published 2010)
